In the supplement of paper PMC12764529:
± gives the half width of the 95% confidence interval.

assay: folding stability dG unfold from chymotrypsin proteolysis; higher = more stable
In short: (§1)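 Designed mini-proteins with no cysteine and under 80 residues were kept only if AlphaFold2 dimer inter-PAE was above 15. In a PA-tagged cDNA display construct, they were digested with trypsin and chymotrypsin and then sequenced. K50 was inferred by Bayesian fitting of counts, and unfolding free energy was derived per protease or combined against a sequence-predicted unfolded-state K50 and a shared folded-state K50.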

Going from “SAGGSAEKPPYVIRLEITVKGPGKKVKLDILVDSPEELEAVIQALKDLGFTDIEPKIETFPLEELDSAGGSA [r15_1015_TrMRF]” to “SAGGSAGGSAGGKVIDSEEFRNNFPSGGVLVDNNGNLYLVGNNYPIDPNQPFLYVSPDEISAGGSAGGSAGG [r7_507_TrMRF]”, the “folding stability dG unfold” value falls from 2.42 ± 0.11 kcal/mol to 1.56 ± 0.17 kcal/mol.

Compared with “SAGGSAGGKKLTAEELAKKLKELIPDVEKVEIVSVDKKTKKVTIKVKTKKEKEKIKEALKELLKSAGGSAGG [r6_635_TrROS_Hall]”, “SAGGSAGGSAGGAVFKTPDGTTLTLLPDGTVVVTEYSPDGVPLRVETRTMTAADIAAAASAGGSAGGSAGGS [r10_874_JUSTAS]” is higher in “folding stability dG unfold” value: 0.816 ± 0.048 kcal/mol for the first, 1.5 ± 0.088 kcal/mol for the second.

Compared with “SAGKIEFPMPNGYWFRIEIDPENNKVKVEYSPHNGQYKVKIPGKEEVQIPIKGMPFEEMAKEIIEKLLKSAG [r5_447_TrROS]”, “SAGGSAGGSGGMMSRTINVSVNPAPGESPEDIVKALAAELGVTIKSVKYSTSSSSLTFTIEVVSAGGSAGGS [r20_188_JUSTAS]” is higher in “folding stability dG unfold” value: 1.13 ± 0.19 kcal/mol for the first, 2.48 ± 0.077 kcal/mol for the second.

First: SAGGGSVSTSVTPDPATGLVTVTVTLTRTTPTPSPGTTTTTTTITVTVQVPPSYQPTATITVSVPASLSAGG [r13_450_JUSTAS]
Second: SAGGSAGGSAGGERVLVMVFKFDPEDNDMKIKDVVTFPNPEEAREEAEKDGYMVMVIPLSAGGSAGGSAGGS [r10_657_TrROS]
The “folding stability dG unfold” value of the first is higher: 3.91 ± 0.12 kcal/mol for the first, 1.85 ± 0.12 kcal/mol for the second.

Compared with “SAGGSAGGSAGTLTFTFDGVTVEVRLVDGYLVIRVTTEVEVNGKKYKVTLELVIKLPEGLSAGGSAGGSAGG [r11_879_TrROS_Hall]”, “SAGGSAGGSAGGSMKVEKLPDGKLLVFDVDTKEWKEIDVEDAEVVLDEDNGRAIVRIKPSAGGSAGGSAGGS [r4_127_TrROS_Hall]” is lower in “folding stability dG unfold” value: 5.4 ± 0.28 kcal/mol for the first, 1.76 ± 0.076 kcal/mol for the second.

Going from “SAGGKTVTITVPEGMTEEEVKALAEKLIEEGFKEVTVTVTRTKTETLPNGKTKTVTETKTYVFKLPPSAGGS [r16_44_TrROS_Hall]” to “SAGGSAGGSAGGAPPGAKFTVKVPSNDNVIPGSVTLGPDGGTVFHFDGPVPEGDYEIVLESAGGSAGGSAGG [r7_627_JUSTAS]”, the “folding stability dG unfold” value falls from 4.062 ± 0.036 kcal/mol to -0.362 ± 0.17 kcal/mol.

Going from “SAGGSAGGMKVTIEKENGKYRIKVEIEKNGKKIEIEIDMSVEELKKELEKKLNIKIKKVEIEPVSAGGSAGG [r6_762_TrROS_Hall]” to “SAGGSAGGPVRITSVRPIPGDPNVVVLELETVDGRPGTVLLVRLPGGERVAVLTLGDRPVVLPLSAGGSAGG [r6_555_TrMRF]”, the “folding stability dG unfold” value rises from 1.03 ± 0.53 kcal/mol to 1.93 ± 0.065 kcal/mol.

Compared with “SAGGSAGGSAGMLRVRAVIKRPGGELEELTDVTEEEVLAYAREKGWEIEELKVISPSEKPSAGGSAGGSAGG [r11_283_JUSTAS]”, “MTTRTLTLTVETSSPEEAEAVREKIRAELGRPDVDVEILEVTFSPDGTVTITIRLAPGVPEERVRALLDALS [r1_485_JUSTAS]” is higher in “folding stability dG unfold” value: 1.91 ± 0.12 kcal/mol for the first, 2.266 ± 0.0084 kcal/mol for the second.

With “SAGGSAGGSAGGSKMYKIKIVNKKTKKVITVEVSEEDIEKALEAAKKAGVEKIEIEEVPSAGGSAGGSAGGS [r4_102_TrROS_Hall]” the “folding stability dG unfold” value was 1.7 ± 0.12 kcal/mol.

assay: folding stability dG unfold (combined trypsin and chymotrypsin); higher = more stable
In short: as §1

Going from “SAGGSAEKPPYVIRLEITVKGPGKKVKLDILVDSPEELEAVIQALKDLGFTDIEPKIETFPLEELDSAGGSA [r15_1015_TrMRF]” to “SAGGSAGGSAGGKVIDSEEFRNNFPSGGVLVDNNGNLYLVGNNYPIDPNQPFLYVSPDEISAGGSAGGSAGG [r7_507_TrMRF]”, the “folding stability dG unfold” value falls from 2.18 ± 0.17 kcal/mol to 1.23 ± 0.22 kcal/mol.

First: SAGGSAGGKKLTAEELAKKLKELIPDVEKVEIVSVDKKTKKVTIKVKTKKEKEKIKEALKELLKSAGGSAGG [r6_635_TrROS_Hall]
Second: SAGGSAGGSAGGAVFKTPDGTTLTLLPDGTVVVTEYSPDGVPLRVETRTMTAADIAAAASAGGSAGGSAGGS [r10_874_JUSTAS]
The “folding stability dG unfold” value of the first is lower: 0.65 ± 0.1 kcal/mol for the first, 1.01 ± 0.085 kcal/mol for the second.

Going from “SAGKIEFPMPNGYWFRIEIDPENNKVKVEYSPHNGQYKVKIPGKEEVQIPIKGMPFEEMAKEIIEKLLKSAG [r5_447_TrROS]” to “SAGGSAGGSGGMMSRTINVSVNPAPGESPEDIVKALAAELGVTIKSVKYSTSSSSLTFTIEVVSAGGSAGGS [r20_188_JUSTAS]”, the “folding stability dG unfold” value rises from 0.962 ± 0.4 kcal/mol to 2.16 ± 0.068 kcal/mol.

First: SAGGGSVSTSVTPDPATGLVTVTVTLTRTTPTPSPGTTTTTTTITVTVQVPPSYQPTATITVSVPASLSAGG [r13_450_JUSTAS]
Second: SAGGSAGGSAGGERVLVMVFKFDPEDNDMKIKDVVTFPNPEEAREEAEKDGYMVMVIPLSAGGSAGGSAGGS [r10_657_TrROS]
The “folding stability dG unfold” value of the first is higher: 3.72 ± 0.082 kcal/mol for the first, 1.47 ± 0.2 kcal/mol for the second.

Compared with “SAGGSAGGSAGTLTFTFDGVTVEVRLVDGYLVIRVTTEVEVNGKKYKVTLELVIKLPEGLSAGGSAGGSAGG [r11_879_TrROS_Hall]”, “SAGGSAGGSAGGSMKVEKLPDGKLLVFDVDTKEWKEIDVEDAEVVLDEDNGRAIVRIKPSAGGSAGGSAGGS [r4_127_TrROS_Hall]” is lower in “folding stability dG unfold” value: 5.49 ± 0.28 kcal/mol for the first, 0.902 ± 0.28 kcal/mol for the second.

Going from “SAGGKTVTITVPEGMTEEEVKALAEKLIEEGFKEVTVTVTRTKTETLPNGKTKTVTETKTYVFKLPPSAGGS [r16_44_TrROS_Hall]” to “SAGGSAGGSAGGAPPGAKFTVKVPSNDNVIPGSVTLGPDGGTVFHFDGPVPEGDYEIVLESAGGSAGGSAGG [r7_627_JUSTAS]”, the “folding stability dG unfold” value falls from 3.88 ± 0.088 kcal/mol to -0.643 ± 0.15 kcal/mol.

“SAGGSAGGMKVTIEKENGKYRIKVEIEKNGKKIEIEIDMSVEELKKELEKKLNIKIKKVEIEPVSAGGSAGG [r6_762_TrROS_Hall]” and “SAGGSAGGPVRITSVRPIPGDPNVVVLELETVDGRPGTVLLVRLPGGERVAVLTLGDRPVVLPLSAGGSAGG [r6_555_TrMRF]” are within error of each other in “folding stability dG unfold” value: 1.5 ± 0.66 kcal/mol for the first, 1.41 ± 0.045 kcal/mol for the second.

Going from “SAGGSAGGSAGMLRVRAVIKRPGGELEELTDVTEEEVLAYAREKGWEIEELKVISPSEKPSAGGSAGGSAGG [r11_283_JUSTAS]” to “MTTRTLTLTVETSSPEEAEAVREKIRAELGRPDVDVEILEVTFSPDGTVTITIRLAPGVPEERVRALLDALS [r1_485_JUSTAS]”, the “folding stability dG unfold” value rises from 1.64 ± 0.13 kcal/mol to 2.79 ± 0.034 kcal/mol.

In the case of “SAGGSAGGSAGGSKMYKIKIVNKKTKKVITVEVSEEDIEKALEAAKKAGVEKIEIEEVPSAGGSAGGSAGGS [r4_102_TrROS_Hall]”, the “folding stability dG unfold” value is reported as 1.82 ± 0.13 kcal/mol.

assay: folding stability dG unfold from trypsin proteolysis; higher = more stable
In short: as §1

First: SAGGSAEKPPYVIRLEITVKGPGKKVKLDILVDSPEELEAVIQALKDLGFTDIEPKIETFPLEELDSAGGSA [r15_1015_TrMRF]
Second: SAGGSAGGSAGGKVIDSEEFRNNFPSGGVLVDNNGNLYLVGNNYPIDPNQPFLYVSPDEISAGGSAGGSAGG [r7_507_TrMRF]
The “folding stability dG unfold” value of the first is higher: 1.63 ± 0.12 kcal/mol for the first, 0.959 ± 0.086 kcal/mol for the second.

First: SAGGSAGGKKLTAEELAKKLKELIPDVEKVEIVSVDKKTKKVTIKVKTKKEKEKIKEALKELLKSAGGSAGG [r6_635_TrROS_Hall]
Second: SAGGSAGGSAGGAVFKTPDGTTLTLLPDGTVVVTEYSPDGVPLRVETRTMTAADIAAAASAGGSAGGSAGGS [r10_874_JUSTAS]
The “folding stability dG unfold” value of the first is higher: 0.56 ± 0.064 kcal/mol for the first, -0.022 ± 0.12 kcal/mol for the second.

First: SAGKIEFPMPNGYWFRIEIDPENNKVKVEYSPHNGQYKVKIPGKEEVQIPIKGMPFEEMAKEIIEKLLKSAG [r5_447_TrROS]
Second: SAGGSAGGSGGMMSRTINVSVNPAPGESPEDIVKALAAELGVTIKSVKYSTSSSSLTFTIEVVSAGGSAGGS [r20_188_JUSTAS]
The “folding stability dG unfold” value of the first is lower: 0.776 ± 0.17 kcal/mol for the first, 1.05 ± 0.04 kcal/mol for the second.

First: SAGGGSVSTSVTPDPATGLVTVTVTLTRTTPTPSPGTTTTTTTITVTVQVPPSYQPTATITVSVPASLSAGG [r13_450_JUSTAS]
Second: SAGGSAGGSAGGERVLVMVFKFDPEDNDMKIKDVVTFPNPEEAREEAEKDGYMVMVIPLSAGGSAGGSAGGS [r10_657_TrROS]
The “folding stability dG unfold” value of the first is higher: 3.49 ± 0.16 kcal/mol for the first, 0.995 ± 0.048 kcal/mol for the second.

First: SAGGSAGGSAGTLTFTFDGVTVEVRLVDGYLVIRVTTEVEVNGKKYKVTLELVIKLPEGLSAGGSAGGSAGG [r11_879_TrROS_Hall]
Second: SAGGSAGGSAGGSMKVEKLPDGKLLVFDVDTKEWKEIDVEDAEVVLDEDNGRAIVRIKPSAGGSAGGSAGGS [r4_127_TrROS_Hall]
The “folding stability dG unfold” value of the first is higher: 4.5 ± 0.41 kcal/mol for the first, -0.173 ± 0.16 kcal/mol for the second.

Compared with “SAGGKTVTITVPEGMTEEEVKALAEKLIEEGFKEVTVTVTRTKTETLPNGKTKTVTETKTYVFKLPPSAGGS [r16_44_TrROS_Hall]”, “SAGGSAGGSAGGAPPGAKFTVKVPSNDNVIPGSVTLGPDGGTVFHFDGPVPEGDYEIVLESAGGSAGGSAGG [r7_627_JUSTAS]” is lower in “folding stability dG unfold” value: 3.45 ± 0.092 kcal/mol for the first, -1.63 ± 0.33 kcal/mol for the second.

First: SAGGSAGGMKVTIEKENGKYRIKVEIEKNGKKIEIEIDMSVEELKKELEKKLNIKIKKVEIEPVSAGGSAGG [r6_762_TrROS_Hall]
Second: SAGGSAGGPVRITSVRPIPGDPNVVVLELETVDGRPGTVLLVRLPGGERVAVLTLGDRPVVLPLSAGGSAGG [r6_555_TrMRF]
The “folding stability dG unfold” value of the first is higher: 1.7 ± 0.2 kcal/mol for the first, 0.42 ± 0.013 kcal/mol for the second.

Compared with “SAGGSAGGSAGMLRVRAVIKRPGGELEELTDVTEEEVLAYAREKGWEIEELKVISPSEKPSAGGSAGGSAGG [r11_283_JUSTAS]”, “MTTRTLTLTVETSSPEEAEAVREKIRAELGRPDVDVEILEVTFSPDGTVTITIRLAPGVPEERVRALLDALS [r1_485_JUSTAS]” is higher in “folding stability dG unfold” value: 1.23 ± 0.054 kcal/mol for the first, 3.37 ± 0.05 kcal/mol for the second.

In the case of “SAGGSAGGSAGGSKMYKIKIVNKKTKKVITVEVSEEDIEKALEAAKKAGVEKIEIEEVPSAGGSAGGSAGGS [r4_102_TrROS_Hall]”, the “folding stability dG unfold” value is reported as 2.03 ± 0.17 kcal/mol.
